The source of these data is article PMC4655838 (2015).

Common to all, as to test: ITC
For orientation: Isothermal titration calorimetry measures the heat released or taken up as one component is titrated into another.

For assay [1], the target named is aprataxin FHA domain (residues 1-105).
The target of assay [2] is T1, APLF FHA domain (residues 1-106) (UniProt Q8IW19 1-106).
T1 chain: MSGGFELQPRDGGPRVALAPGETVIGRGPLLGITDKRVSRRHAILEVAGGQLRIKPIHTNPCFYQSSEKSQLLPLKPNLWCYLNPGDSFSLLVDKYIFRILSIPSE

Assay [3] addresses aprataxin FHA domain K38A (residues 1-105).

Square brackets hold non-standard residues; d marks the D form. Ends that are not written are not given here. pT = C[C@@H](OP(=O)(O)O)[C@H](N)C(=O)O; pS = N[C@@H](COP(=O)(O)O)C(=O)O

Chain of aprataxin FHA domain K38A (residues 1-105) (chain, as listed by the source K38A): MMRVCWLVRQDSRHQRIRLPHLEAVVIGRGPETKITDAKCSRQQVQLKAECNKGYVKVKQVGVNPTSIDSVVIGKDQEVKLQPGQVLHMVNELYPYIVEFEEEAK
Chain of aprataxin FHA domain (residues 1-105) (chain, as listed by the source): as the sequence (chain, as listed by the source K38A) above, with A38K counted along it

B1: XRCC1 515-529 peptide phosphorylated on Ser518, Thr519, Thr523 and Ser525 (peptide)
peptide: YAG[pS][pT]DEN[pT]D[pS]EEHQ-NH2
modifications: N-terminus assumed
SMILES: C[C@H](NC(=O)[C@@H](N)Cc1ccc(O)cc1)C(=O)NCC(=O)N[C@@H](COP(=O)(O)O)C(=O)N[C@H](C(=O)N[C@@H](CC(=O)O)C(=O)N[C@@H](CCC(=O)O)C(=O)N[C@@H](CC(N)=O)C(=O)N[C@H](C(=O)N[C@@H](CC(=O)O)C(=O)N[C@@H](COP(=O)(O)O)C(=O)N[C@@H](CCC(=O)O)C(=O)N[C@@H](CCC(=O)O)C(=O)N[C@@H](Cc1c[nH]cn1)C(=O)N[C@@H](CCC(N)=O)C(N)=O)[C@@H](C)OP(=O)(O)O)[C@@H](C)OP(=O)(O)O
On to B1, for which the dissociation constant (Kd) (in general, the equilibrium constant for the complex coming apart) was found to be 0.87 µM in assay [1] and 11 µM in assay [2].

B2: XRCC4 229-237 peptide phosphorylated on Thr233 (peptide)
peptide: YDESTDEES
HELM: PEPTIDE1{Y.D.E.S.[C[C@@H](OP(=O)(O)O)[C@H](N[*:1])C(=O)[*:2]].D.E.E.S.[am]}$$$$V2.0; N-terminus assumed
SMILES: C[C@@H](OP(=O)(O)O)[C@H](NC(=O)[C@H](CO)NC(=O)[C@H](CCC(=O)O)NC(=O)[C@H](CC(=O)O)NC(=O)[C@@H](N)Cc1ccc(O)cc1)C(=O)N[C@@H](CC(=O)O)C(=O)N[C@@H](CCC(=O)O)C(=O)N[C@@H](CCC(=O)O)C(=O)N[C@@H](CO)C(N)=O
Consider B2, for which the figures for the Kd in assay [3], in assay [1] and in assay [2] were 6.8 µM, 2.1 µM and 3.6 µM, respectively.

B3: XRCC1 515-529 peptide phosphorylated on Ser518, Thr519 and Thr523 (peptide)
peptide: YAG[pS][pT]DEN[pT]DSEEHQ-NH2
modifications: N-terminus assumed
SMILES: C[C@H](NC(=O)[C@@H](N)Cc1ccc(O)cc1)C(=O)NCC(=O)N[C@@H](COP(=O)(O)O)C(=O)N[C@H](C(=O)N[C@@H](CC(=O)O)C(=O)N[C@@H](CCC(=O)O)C(=O)N[C@@H](CC(N)=O)C(=O)N[C@H](C(=O)N[C@@H](CC(=O)O)C(=O)N[C@@H](CO)C(=O)N[C@@H](CCC(=O)O)C(=O)N[C@@H](CCC(=O)O)C(=O)N[C@@H](Cc1c[nH]cn1)C(=O)N[C@@H](CCC(N)=O)C(N)=O)[C@@H](C)OP(=O)(O)O)[C@@H](C)OP(=O)(O)O
As to B3, the values for the Kd in assay [3], in assay [1] and in assay [2] were 3.8 µM, 0.5 µM and 11 µM, respectively.

B4: XRCC4 229-237 peptide phosphorylated on Ser232 and Thr233 (peptide)
peptide: YDESTDEES
HELM: PEPTIDE1{Y.D.E.[O=C([C@H](COP(=O)(O)O)N[*:1])[*:2]].[C[C@@H](OP(=O)(O)O)[C@H](N[*:1])C(=O)[*:2]].D.E.E.S.[am]}$$$$V2.0; N-terminus assumed
SMILES: C[C@@H](OP(=O)(O)O)[C@H](NC(=O)[C@H](COP(=O)(O)O)NC(=O)[C@H](CCC(=O)O)NC(=O)[C@H](CC(=O)O)NC(=O)[C@@H](N)Cc1ccc(O)cc1)C(=O)N[C@@H](CC(=O)O)C(=O)N[C@@H](CCC(=O)O)C(=O)N[C@@H](CCC(=O)O)C(=O)N[C@@H](CO)C(N)=O
On to B4, for which the values for the Kd in assay [3], in assay [1] and in assay [2] were 1.9 µM, 0.25 µM and 0.47 µM, respectively.

B5: XRCC1 515-529 peptide phosphorylated on Ser518 and Thr519 (peptide)
peptide: YAGSTDENTDSEEHQ
HELM: PEPTIDE1{Y.A.G.[O=C([C@H](COP(=O)(O)O)N[*:1])[*:2]].[C[C@@H](OP(=O)(O)O)[C@H](N[*:1])C(=O)[*:2]].D.E.N.T.D.S.E.E.H.Q.[am]}$$$$V2.0; N-terminus assumed
SMILES: C[C@H](NC(=O)[C@@H](N)Cc1ccc(O)cc1)C(=O)NCC(=O)N[C@@H](COP(=O)(O)O)C(=O)N[C@H](C(=O)N[C@@H](CC(=O)O)C(=O)N[C@@H](CCC(=O)O)C(=O)N[C@@H](CC(N)=O)C(=O)N[C@H](C(=O)N[C@@H](CC(=O)O)C(=O)N[C@@H](CO)C(=O)N[C@@H](CCC(=O)O)C(=O)N[C@@H](CCC(=O)O)C(=O)N[C@@H](Cc1c[nH]cn1)C(=O)N[C@@H](CCC(N)=O)C(N)=O)[C@@H](C)O)[C@@H](C)OP(=O)(O)O
B5: the Kd in assay [3] stood at 12.8 µM; in assay [1], 1.5 µM; in assay [2], 8.1 µM.

B6: XRCC1 515-529 peptide phosphorylated on Thr519 (peptide)
peptide: YAGSTDENTDSEEHQ
HELM: PEPTIDE1{Y.A.G.S.[C[C@@H](OP(=O)(O)O)[C@H](N[*:1])C(=O)[*:2]].D.E.N.T.D.S.E.E.H.Q.[am]}$$$$V2.0; N-terminus assumed
SMILES: C[C@H](NC(=O)[C@@H](N)Cc1ccc(O)cc1)C(=O)NCC(=O)N[C@@H](CO)C(=O)N[C@H](C(=O)N[C@@H](CC(=O)O)C(=O)N[C@@H](CCC(=O)O)C(=O)N[C@@H](CC(N)=O)C(=O)N[C@H](C(=O)N[C@@H](CC(=O)O)C(=O)N[C@@H](CO)C(=O)N[C@@H](CCC(=O)O)C(=O)N[C@@H](CCC(=O)O)C(=O)N[C@@H](Cc1c[nH]cn1)C(=O)N[C@@H](CCC(N)=O)C(N)=O)[C@@H](C)O)[C@@H](C)OP(=O)(O)O
B6: the Kd in assay [3] was 46.3 µM; in assay [1] it was 17 µM; in assay [2], 30 µM.

B7: XRCC4 229-237 peptide phosphorylated on Ser232, Thr233 and Ser237 (peptide)
peptide: YDE[pS][pT]DEE[pS]-NH2
modifications: N-terminus assumed
SMILES: C[C@@H](OP(=O)(O)O)[C@H](NC(=O)[C@H](COP(=O)(O)O)NC(=O)[C@H](CCC(=O)O)NC(=O)[C@H](CC(=O)O)NC(=O)[C@@H](N)Cc1ccc(O)cc1)C(=O)N[C@@H](CC(=O)O)C(=O)N[C@@H](CCC(=O)O)C(=O)N[C@@H](CCC(=O)O)C(=O)N[C@@H](COP(=O)(O)O)C(N)=O
In the case of B7, the Kd was found to be 1.3 µM in assay [3], 0.14 µM in assay [1] and 0.42 µM in assay [2].

B8: YAGSTDENpTDpSEEHQ (peptide)
chain: YAGSTDENTDSEEHQ
HELM: PEPTIDE1{Y.A.G.S.T.D.E.N.[C[C@@H](OP(=O)(O)O)[C@H](N[*:1])C(=O)[*:2]].D.[O=C([C@H](COP(=O)(O)O)N[*:1])[*:2]].E.E.H.Q.[am]}$$$$V2.0; N-terminus assumed
SMILES: C[C@H](NC(=O)[C@@H](N)Cc1ccc(O)cc1)C(=O)NCC(=O)N[C@@H](CO)C(=O)N[C@H](C(=O)N[C@@H](CC(=O)O)C(=O)N[C@@H](CCC(=O)O)C(=O)N[C@@H](CC(N)=O)C(=O)N[C@H](C(=O)N[C@@H](CC(=O)O)C(=O)N[C@@H](COP(=O)(O)O)C(=O)N[C@@H](CCC(=O)O)C(=O)N[C@@H](CCC(=O)O)C(=O)N[C@@H](Cc1c[nH]cn1)C(=O)N[C@@H](CCC(N)=O)C(N)=O)[C@@H](C)OP(=O)(O)O)[C@@H](C)O
In the case of B8, the Kd was 33 µM in assay [1] and 17 µM in assay [2].

B9: XRCC1 515-529 peptide phosphorylated solely on Thr523 (peptide)
peptide: YAGSTDENTDSEEHQ
HELM: PEPTIDE1{Y.A.G.S.T.D.E.N.[C[C@@H](OP(=O)(O)O)[C@H](N[*:1])C(=O)[*:2]].D.S.E.E.H.Q.[am]}$$$$V2.0; N-terminus assumed
SMILES: C[C@H](NC(=O)[C@@H](N)Cc1ccc(O)cc1)C(=O)NCC(=O)N[C@@H](CO)C(=O)N[C@H](C(=O)N[C@@H](CC(=O)O)C(=O)N[C@@H](CCC(=O)O)C(=O)N[C@@H](CC(N)=O)C(=O)N[C@H](C(=O)N[C@@H](CC(=O)O)C(=O)N[C@@H](CO)C(=O)N[C@@H](CCC(=O)O)C(=O)N[C@@H](CCC(=O)O)C(=O)N[C@@H](Cc1c[nH]cn1)C(=O)N[C@@H](CCC(N)=O)C(N)=O)[C@@H](C)OP(=O)(O)O)[C@@H](C)O
With B9, the values for the Kd in assay [1] and in assay [2] were 42 µM and 35 µM, respectively.
